Positions count from the first letter of the chain named.
T1: SIP2 D1 (Plasmodium falciparum, UniProt C6KSN9 177-235)
T1 sequence: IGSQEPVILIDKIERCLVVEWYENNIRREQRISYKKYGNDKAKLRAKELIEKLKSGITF

B1: GTGCAC_site10263 (dsDNA)
DNA 1: TTTAATTATTAAATGGTGCACTTGAAATATAAAAAT
DNA 2: ATTTTTATATTTCAAGTGCACCATTTAATAATTAAA
B2: GTGCAC_site10337 (dsDNA)
DNA 1: GGGATATTTTAAAGGGTGCATATTATTAAAATAATG
DNA 2: CATTATTTTAATAATATGCACCCTTTAAAATATCCC
B3: GTGCAC_site10264 (dsDNA)
DNA 1: TTATTTATTTATTGGGTGCACTTGATTTAAATATGC
DNA 2: GCATATTTAAATCAAGTGCACCCAATAAATAAATAA
B4: GTGCAC_site10767 (dsDNA)
DNA 1: TGTTTTATTTAGAAGGTGCACATTAATATTAAATAA
DNA 2: TTATTTAATATTAATGTGCACCTTCTAAATAAAACA
B5: GTGCAC_site10574 (dsDNA)
DNA 1: AATTAATGGCTAAAGGTGCACAATATATATATTACA
DNA 2: TGTAATATATATATTGTGCACCTTTAGCCATTAATT
B6: GTGCAC_site10495 (dsDNA)
DNA 1: ATATATATAATATAGGTGCACTACTTATTTAAAAAA
DNA 2: TTTTTTAAATAAGTAGTGCACCTATATTATATATAT
B7: GTGCAC_site9513 (dsDNA)
DNA 1: TATATATGTATATGTGTGCACCTTATTTCTTTTATT
DNA 2: AATAAAAGAAATAAGGTGCACACATATACATATATA
B8: GTGCAC_site9401 (dsDNA)
DNA 1: AAAAAAAAAAAAAAGGTGCATACTTTGAATTAATAT
DNA 2: ATATTAATTCAAAGTATGCACCTTTTTTTTTTTTTT
B9: GTGCAC_site9881 (dsDNA)
DNA 1: TCCGCATGTACATGGGTGCACATAACACCCATTTAA
DNA 2: TTAAATGGGTGTTATGTGCACCCATGTACATGCGGA
B10: GTGCAC_site10229 (dsDNA)
DNA 1: CACATTAATTTTTGGGTGCACTTGGGAAATTTTGGT
DNA 2: ACCAAAATTTCCCAAGTGCACCCAAAAATTAATGTG
B11: GTGCAC_site10597 (dsDNA)
DNA 1: TGAACTCAACAAAGGGTGCATAACAAAAATAGACGT
DNA 2: ACGTCTATTTTTGTTATGCACCCTTTGTTGAGTTCA
B12: GTGCAC_site9503 (dsDNA)
DNA 1: ATCTATTTGTAAAGGGTGCGCATATCAATAAAAAAT
DNA 2: ATTTTTTATTGATATGCGCACCCTTTACAAATAGAT
B13: GTGCAC_site9895 (dsDNA)
DNA 1: ATTGAATTCCAACTGGTGCACCAGTAAGATTGAAAA
DNA 2: TTTTCAATCTTACTGGTGCACCAGTTGGAATTCAAT
B14: GTGCAC_site9943 (dsDNA)
DNA 1: B5 DNA 1 with C10T, T26C
DNA 2: B5 DNA 2 with A11G, G27A
B15: GTGCAC_site9733 (dsDNA)
DNA 1: TAAAAATTAAAAAGGGTGCAAAAAAAAAAAAAAAAA
DNA 2: TTTTTTTTTTTTTTTTTGCACCCTTTTTAATTTTTA
B16: GTGCAC_site10518 (dsDNA)
DNA 1: ATATATTTCAAAGGGGTGCAGGCATATTTAAGCAAA
DNA 2: TTTGCTTAAATATGCCTGCACCCCTTTGAAATATAT
B17: GTGCAC_site9950 (dsDNA)
DNA 1: AAAAAAAAAAAAATGGTGCAACTTTGTTAAAGGAAA
DNA 2: TTTCCTTTAACAAAGTTGCACCATTTTTTTTTTTTT
B18: GTGCAC_site9660 (dsDNA)
DNA 1: CTTTTTTTTTTGGGGGTGCATGCAAGACATATATTT
DNA 2: AAATATATGTCTTGCATGCACCCCCAAAAAAAAAAG
B19: GTGCAC_site10679 (dsDNA)
DNA 1: AGCATATTATTTTAGGTGCACTTGAAATGTGTTAAC
DNA 2: GTTAACACATTTCAAGTGCACCTAAAATAATATGCT
B20: GTGCAC_site10641 (dsDNA)
DNA 1: ATATAATAACAAAAGGTGCGCATTAAGACAAAAAAA
DNA 2: TTTTTTTGTCTTAATGCGCACCTTTTGTTATTATAT
B21: GTGCAC_site9600 (dsDNA)
DNA 1: AACCTTACACAAGGGGTGCAATATTATTTCGATAAA
DNA 2: TTTATCGAAATAATATTGCACCCCTTGTGTAAGGTT
B22: GTGCAC_site10200 (dsDNA)
DNA 1: CTCATTTTTGTACAGGTGCACTTATCGTTACACTAT
DNA 2: ATAGTGTAACGATAAGTGCACCTGTACAAAAATGAG
B23: GTGCAC_site9853 (dsDNA)
DNA 1: ACTATTTAATATAGGGTGCAACTTTTTCAAGTAAAT
DNA 2: ATTTACTTGAAAAAGTTGCACCCTATATTAAATAGT
B24: GTGCAC_site10198 (dsDNA)
DNA 1: TTTTTAACGTATAAGGTGCACTGTATATGGTACTCA
DNA 2: TGAGTACCATATACAGTGCACCTTATACGTTAAAAA
B25: GTGCAC_site10727 (dsDNA)
DNA 1: ATAGAAGGCAACTTGGTGCACAAAAAAAAAAATAAT
DNA 2: ATTATTTTTTTTTTTGTGCACCAAGTTGCCTTCTAT
B26: GTGCAC_site9754 (dsDNA)
DNA 1: ATATAATATTTTAGAGTGCACCGATAACAATAAATA
DNA 2: TATTTATTGTTATCGGTGCACTCTAAAATATTATAT
B27: GTGCAC_site10577 (dsDNA)
DNA 1: TTTTTTTTCTATGTGGTGCACATTATTTTTTTTTTT
DNA 2: AAAAAAAAAAATAATGTGCACCACATAGAAAAAAAA
B28: GTGCAC_site10015 (dsDNA)
DNA 1: TATAATGGTTCTGGTGTGCACCATGACAGAATCAAG
DNA 2: CTTGATTCTGTCATGGTGCACACCAGAACCATTATA
B29: GTGCAC_site10674 (dsDNA)
DNA 1: AAAAAAAAAAAAAAGGTGCAAATAAATTAACCTTAT
DNA 2: ATAAGGTTAATTTATTTGCACCTTTTTTTTTTTTTT
B30: GTGCAC_site10519 (dsDNA)
DNA 1: CATGCCTTTAAAAAGGTGCAAACATTTTCACAAACA
DNA 2: TGTTTGTGAAAATGTTTGCACCTTTTTAAAGGCATG
B31: GTGCAC_site9525 (dsDNA)
DNA 1: CTGCGTTTAATATGCGTGCACCTTGGTTTTATATCT
DNA 2: AGATATAAAACCAAGGTGCACGCATATTAAACGCAG
B32: GTGCAC_site9650 (dsDNA)
DNA 1: CAATTTGGTGTACAGGTGCACATGCCTCACGATAAA
DNA 2: TTTATCGTGAGGCATGTGCACCTGTACACCAAATTG
B33: GTGCAC_site9532 (dsDNA)
DNA 1: ATATATATATTAAAGGTGCACAAATAAATATATACA
DNA 2: TGTATATATTTATTTGTGCACCTTTAATATATATAT
B34: GTGCAC_site10454 (dsDNA)
DNA 1: TTTTTAATATATTAGGTGCACAATAATACACTTTAT
DNA 2: ATAAAGTGTATTATTGTGCACCTAATATATTAAAAA
B35: GTGCAC_site10039 (dsDNA)
DNA 1: CAGTAGTTTTTATGGGTGCAAAACATATATATAACA
DNA 2: TGTTATATATATGTTTTGCACCCATAAAAACTACTG
B36: GTGCAC_site9862 (dsDNA)
DNA 1: ACACATACACATTAGGTGCACATAATTCAATATTAC
DNA 2: GTAATATTGAATTATGTGCACCTAATGTGTATGTGT
B37: GTGCAC_site10448 (dsDNA)
DNA 1: TATTAATTTAAATGGGTGCAAAACCTATATAAATAT
DNA 2: ATATTTATATAGGTTTTGCACCCATTTAAATTAATA
B38: GTGCAC_site9760 (dsDNA)
DNA 1: ATAATTATTCTTATGGTGCACTGAATATACATGTTG
DNA 2: CAACATGTATATTCAGTGCACCATAAGAATAATTAT
B39: GTGCAC_site10197 (dsDNA)
DNA 1: TCCATATGCAAACTGGTGCACAAGTAGCTTTTATAT
DNA 2: ATATAAAAGCTACTTGTGCACCAGTTTGCATATGGA
B40: GTGCAC_site10328 (dsDNA)
DNA 1: AAATTCTGCATCGAGGTGCGCCATAAAAATTGTGGT
DNA 2: ACCACAATTTTTATGGCGCACCTCGATGCAGAATTT
B41: GTGCAC_site10740 (dsDNA)
DNA 1: AAAAATTAACAAAAGGTGCAATTTATTTATTAACGG
DNA 2: CCGTTAATAAATAAATTGCACCTTTTGTTAATTTTT
B42: GTGCAC_site10066 (dsDNA)
DNA 1: TAAACATATAGAGGGGTGCAAAGAATTGTAAAATTT
DNA 2: AAATTTTACAATTCTTTGCACCCCTCTATATGTTTA
B43: GTGCAC_site10082 (dsDNA)
DNA 1: ATAATAACTTGTAAGGTGCATTTTATGTTTTCTTAA
DNA 2: TTAAGAAAACATAAAATGCACCTTACAAGTTATTAT
B44: GTGCAC_site10429 (dsDNA)
DNA 1: TATAAGTGCTCAACGGTGCATTTATAGAAGTTAAAC
DNA 2: GTTTAACTTCTATAAATGCACCGTTGAGCACTTATA

Biological target: T1, SIP2 D1
Assay: gcPBM; about 25 ug protein; PBS, 1% milk, 0.2 mg/ml BSA, salmon testes DNA, 0.03% Triton X-100
Conditions: tags: N-terminal GST (pGEX-4T-1), kept; label: surface-attached array probe

Binder | binding signal
B1 | 11.8 ln median PBM intensity, better of two orientations
B2 | 11.8 ln median PBM intensity, better of two orientations
B3 | 11.8 ln median PBM intensity, better of two orientations
B4 | 11.8 ln median PBM intensity, better of two orientations
B5 | 11.7 ln median PBM intensity, better of two orientations
B6 | 11.7 ln median PBM intensity, better of two orientations
B7 | 11.7 ln median PBM intensity, better of two orientations
B8 | 11.7 ln median PBM intensity, better of two orientations
B9 | 11.6 ln median PBM intensity, better of two orientations
B10 | 11.6 ln median PBM intensity, better of two orientations
B11 | 11.6 ln median PBM intensity, better of two orientations
B12 | 11.6 ln median PBM intensity, better of two orientations
B13 | 11.6 ln median PBM intensity, better of two orientations
B14 | 11.6 ln median PBM intensity, better of two orientations
B15 | 11.6 ln median PBM intensity, better of two orientations
B16 | 11.6 ln median PBM intensity, better of two orientations
B17 | 11.6 ln median PBM intensity, better of two orientations
B18 | 11.5 ln median PBM intensity, better of two orientations
B19 | 11.5 ln median PBM intensity, better of two orientations
B20 | 11.5 ln median PBM intensity, better of two orientations
B21 | 11.5 ln median PBM intensity, better of two orientations
B22 | 11.5 ln median PBM intensity, better of two orientations

Binder | binding signal
B23 | 11.5 ln median PBM intensity, better of two orientations
B24 | 11.5 ln median PBM intensity, better of two orientations
B25 | 11.4 ln median PBM intensity, better of two orientations
B26 | 11.4 ln median PBM intensity, better of two orientations
B27 | 11.4 ln median PBM intensity, better of two orientations
B28 | 11.4 ln median PBM intensity, better of two orientations
B29 | 11.4 ln median PBM intensity, better of two orientations
B30 | 11.4 ln median PBM intensity, better of two orientations
B31 | 11.3 ln median PBM intensity, better of two orientations
B32 | 11.3 ln median PBM intensity, better of two orientations
B33 | 11.3 ln median PBM intensity, better of two orientations
B34 | 11.3 ln median PBM intensity, better of two orientations
B35 | 11.3 ln median PBM intensity, better of two orientations
B36 | 11.3 ln median PBM intensity, better of two orientations
B37 | 11.1 ln median PBM intensity, better of two orientations
B38 | 11 ln median PBM intensity, better of two orientations
B39 | 11 ln median PBM intensity, better of two orientations
B40 | 10.9 ln median PBM intensity, better of two orientations
B41 | 10.9 ln median PBM intensity, better of two orientations
B42 | 10.8 ln median PBM intensity, better of two orientations
B43 | 10.8 ln median PBM intensity, better of two orientations
B44 | 10.8 ln median PBM intensity, better of two orientations
